Source: patent US20040043420A1, “Method of identifying conformation-sensitive binding peptides and uses thereof” (priority 2003, published 2004)

Legend:
ER α, P03372 [1] = target: T1, ER α, P03372; assay: peptide probe binding to ERα, all modulators
T1 chain: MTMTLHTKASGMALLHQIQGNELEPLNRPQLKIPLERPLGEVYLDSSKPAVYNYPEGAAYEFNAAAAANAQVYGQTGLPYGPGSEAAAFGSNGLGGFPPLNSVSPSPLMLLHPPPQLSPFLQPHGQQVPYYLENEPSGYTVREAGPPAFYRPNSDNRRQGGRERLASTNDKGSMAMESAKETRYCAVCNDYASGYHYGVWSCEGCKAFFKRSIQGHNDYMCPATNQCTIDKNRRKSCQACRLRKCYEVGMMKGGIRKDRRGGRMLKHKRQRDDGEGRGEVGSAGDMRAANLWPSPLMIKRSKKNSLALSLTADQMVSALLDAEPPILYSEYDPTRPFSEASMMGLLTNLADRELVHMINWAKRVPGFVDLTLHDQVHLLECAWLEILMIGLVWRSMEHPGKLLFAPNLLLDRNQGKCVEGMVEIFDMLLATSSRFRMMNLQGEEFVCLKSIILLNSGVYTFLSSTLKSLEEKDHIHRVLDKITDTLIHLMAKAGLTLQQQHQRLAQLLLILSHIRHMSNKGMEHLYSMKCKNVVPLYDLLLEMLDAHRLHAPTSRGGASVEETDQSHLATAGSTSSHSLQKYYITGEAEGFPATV

ER β, Q92731 [2] = target: T2, ER β, Q92731; assay: peptide probe binding to ERβ, Buffer
T2 chain: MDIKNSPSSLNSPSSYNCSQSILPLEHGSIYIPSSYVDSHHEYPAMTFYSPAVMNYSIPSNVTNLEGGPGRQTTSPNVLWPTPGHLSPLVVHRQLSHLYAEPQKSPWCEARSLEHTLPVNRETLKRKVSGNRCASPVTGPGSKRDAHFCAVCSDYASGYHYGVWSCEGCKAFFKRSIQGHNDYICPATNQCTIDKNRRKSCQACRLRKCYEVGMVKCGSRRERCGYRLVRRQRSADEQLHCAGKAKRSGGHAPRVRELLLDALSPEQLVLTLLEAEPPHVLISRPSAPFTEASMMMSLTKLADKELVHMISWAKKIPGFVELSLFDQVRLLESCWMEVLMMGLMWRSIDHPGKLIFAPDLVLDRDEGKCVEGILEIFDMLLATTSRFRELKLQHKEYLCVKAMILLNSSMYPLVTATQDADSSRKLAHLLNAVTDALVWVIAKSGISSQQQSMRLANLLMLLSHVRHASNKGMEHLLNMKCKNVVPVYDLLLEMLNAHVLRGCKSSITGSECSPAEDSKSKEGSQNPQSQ

ER β, Q92731 [3] = target: T2, ER β, Q92731; assay: phage ELISA, 4-OH tamoxifen 1 µM
ER α, P03372 [4] = target: T1, ER α, P03372; assay: peptide probe binding to ERα, Diethylstilbesterol
ER α, P03372 [5] = target: T1, ER α, P03372; assay: peptide probe binding to ERα, 17β-Estradiol
ER β, Q92731 [6] = target: T2, ER β, Q92731; assay: peptide probe binding to ERβ, Diethylstilbesterol
ER α, P03372 [7] = target: T1, ER α, P03372; assay: peptide probe binding to ERα, GW7604
ER α, P03372 [8] = target: T1, ER α, P03372; assay: peptide probe binding to ERα, Clomiphene
ER α, P03372 [9] = target: T1, ER α, P03372; assay: peptide probe binding to ERα, 4-OH Tamoxifen
ER α, P03372 [10] = target: T1, ER α, P03372; assay: peptide probe binding to ERα, Raloxifene
ER β, Q92731 [11] = target: T2, ER β, Q92731; assay: peptide probe binding to ERβ, GW 7604
ER β, Q92731 [12] = target: T2, ER β, Q92731; assay: phage ELISA, ICI 182,780 1 µM
ER α, P03372 [13] = target: T1, ER α, P03372; assay: peptide probe binding to ERα, Buffer
ER α, P03372 [14] = target: T1, ER α, P03372; assay: peptide probe binding to ERα, ICI 182,780
ER β, Q92731 [15] = target: T2, ER β, Q92731; assay: peptide probe binding to ERβ, 17β-Estradiol
ER β, Q92731 [16] = target: T2, ER β, Q92731; assay: phage ELISA, raloxifene 1 µM
ER β, Q92731 [17] = target: T2, ER β, Q92731; assay: peptide probe binding to ERβ, Estriol
ER α, P03372 [18] = target: T1, ER α, P03372; assay: peptide probe binding to ERα, Nafoxidine
ER β, Q92731 [19] = target: T2, ER β, Q92731; assay: peptide probe binding to ERβ, 17α-Estradiol
ER β, Q92731 [20] = target: T2, ER β, Q92731; assay: phage ELISA, clomiphene 10 µM
ER α, P03372 [21] = target: T1, ER α, P03372; assay: peptide probe binding to ERα, 17α-Estradiol
ER α, P03372 [22] = target: T1, ER α, P03372; assay: peptide probe binding to ERα, Estriol

Question: SRTWESPLGTWEWSR (modifications not checked) [#13 ER] was tested. Which Equiv. (ER α, P03372 [1]) did it give?
Answer: 0%

Question: SSNHQSSRLIELLSR (modifications not checked) [phage 4 (Table 2)] was tested. Which Equiv. (ER β, Q92731 [2]) did it give?
Answer: 0%

Question: And the phage ELISA grade (ER β, Q92731 [3])?
Answer: 0

Question: What about the Equiv. (ER α, P03372 [4]) of the same binder?
Answer: 71%

Question: What about the Equiv. (ER α, P03372 [5]) of the same binder?
Answer: 100%

Question: And the Equiv. (ER β, Q92731 [6])?
Answer: 68%

Question: What about the Equiv. (ER α, P03372 [7]) of the same binder?
Answer: 0%

Question: And the Equiv. (ER α, P03372 [8])?
Answer: 0%

Question: And the Equiv. (ER α, P03372 [9])?
Answer: 0%

Question: What about the Equiv. (ER α, P03372 [10]) of the same binder?
Answer: 0%

Question: What about the Equiv. (ER β, Q92731 [11]) of the same binder?
Answer: 0%

Question: What about the phage ELISA grade (ER β, Q92731 [12]) of the same binder?
Answer: 0

Question: What about the Equiv. (ER α, P03372 [13]) of the same binder?
Answer: 0%

Question: And the Equiv. (ER α, P03372 [14])?
Answer: 0%

Question: What about the Equiv. (ER β, Q92731 [15]) of the same binder?
Answer: 100%

Question: What about the phage ELISA grade (ER β, Q92731 [16]) of the same binder?
Answer: 0

Question: And the Equiv. (ER β, Q92731 [17])?
Answer: 81%

Question: What about the Equiv. (ER α, P03372 [18]) of the same binder?
Answer: 0%

Question: And the Equiv. (ER β, Q92731 [19])?
Answer: 44%

Question: What about the phage ELISA grade (ER β, Q92731 [20]) of the same binder?
Answer: 0

Question: And the Equiv. (ER α, P03372 [21])?
Answer: 53%

Question: And the Equiv. (ER α, P03372 [22])?
Answer: 65%
